Reference: patent US11028167 (CENTIVAX, dated 2021)
Read-outs that look alike come from different tables or passages of the source.

Assays:
Test in all cases: SPR, scFv captured by anti-V5, RBD analyte
[1] = target: T1, SARS-CoV-2 Receptor Binding Domain (RBD) protein (SARS-CoV-2, UniProt P0DTC2 319-541)
[2] = target: SARS-CoV-1 Receptor Binding Domain (RBD) protein (SARS-CoV-1, UniProt P59594 306-527)
[3] = target: MERS Receptor Binding Domain (RBD) protein (Middle East Respiratory Syndrome (MERS) …, UniProt K9N5Q8 367-606)
[4] = target: T1, SARS-CoV-2 Receptor Binding Domain …; remark: listed apart in the source

Binder	Kd [1] [nM]	koff [1] [s⁻¹]	kon [1] [M⁻¹ s⁻¹]	binding result [2]	binding result [3]	Kd [4] [nM]
COVID19_P06_F03 (scFv, V domains shown) VH: QVQLVQSGAEVKKPGASVKVSCKASGYTFTSYSMHWVRQAPGQGLEWMGAIYPGNSDTTYAQKFQGRVTMTRDTSTSTVYMELSSLRSEDTAVYYCTLDGIPQLLRTLDYWGQGTLVTVSS VL: DIQMTQSPSSLSASVGDRVTITCRASQSISSYLNWYQQKPGKAPKLLIYGVSSLHSGVPSRFSGSGSGTDFTLTISSLQPEDFATYYCLQYVSYPWTFGGGTKVEIKR	32.6	0.00532	163000	no binding (tested: 300 nM)	no binding (tested: 300 nM)	
COVID19_R02_C12 (scFv, V domains shown) VH: QVQLVQSGAEVKKPGASVKVSCKASGYTFTSYDINWVRQAPGQGLEWMGMVDPNSGNTYYAQKFQGRFTMTRDTSTSTVYMELSSLRSEDTAVYYCTREGIPQLLGTLDYWGQGTLVTVSS VL: not shown	8.2	0.00059	72000	no binding (tested: 300 nM)	no binding (tested: 300 nM)	
COVID19_R02_B08 (scFv, V domains shown) VH: QVQLVQSGAEVKKPGASVKVSCKASGYTFTSYYIHWVRQAPGQGLEWMGIINPRGGSTSYAQKFQGRVTMTRDTSTSTVYMELSSLRSEDTAVYYCTREAKPQLLRTLDYWGQGTLVTVSS VL: DIQMTQSPSSLSASVGDRVTITCRASQGIDTYLNWYQQKPGKAPKLLIYKASSLESGVPSRFSGSGSGTEFTLTINSLQPEDIATYYCQQYDNLPLTFGGGTKVEIKR						166
COVID19_P06_C09 (scFv, V domains shown) VH: QVQLVQSGAEVKKPGASVKVSCKASGYTFTSYEINWVRQAPGQGLEWMGVINPSGGHTNYAQKFQGRVTMTRDTSTSTVYMELSSLRSEDTAVYYCTREGIPQLAGTLDYWGQGTLVTVSS VL: DIQMTQSPSSLSASVGDRVTITCRASQSISGYLNWYQQKPGKAPKLLIYAASSLESGVPSRFSGSGSGTDFTLTISSLQPEDFATYYCQQGYTTPRTFGGGTKVEIKR	2.47	0.00074	300000	no binding (tested: 300 nM)	no binding (tested: 300 nM)	
